Assays:
ParGβCopG = ParGβCopG (UniProt Q9KJ82); experiment: cross-linking
ParGβMetJ = ParGβMetJ (UniProt Q9KJ82); experiment: cross-linking

Substance | stoichiometry N (ParGβCopG) | stoichiometry N (ParGβMetJ)
ParGβCopG (from UniProt Q9KJ82 1-76) | 2 | 
ParGβMetJ (from UniProt Q9KJ82 1-76) |  | 2
